Source: US20210371480
Substitutions are numbered along the chain they refer to.

B1: purified CFI (Comptech cat. A138) (protein)
chain: KVTYTSQEDLVEKKCLAKKYTHLSCDKVFCQPWQRCIEGTCVCKLPYQCPKNGTAVCATNRRSFPTYCQQKSLECLHPGTKFLNNGTCTAEGKFSVSLKHGNTDSEGIVEVKLVDQDKTMFICKSSWSMREANVACLDLGFQQGADTQRRFKLSDLSINSTECLHVHCRGLETSLAECTFTKRRTMGYQDFADVVCYTQKADSPMDDFFQCVNGKYISQMKACDGINDCGDQSDELCCKACQGKGFHCKSGVCIPSQYQCNGEVDCITGEDEVGCAGFASVTQEETEILTADMDAERRRIKSLLPKLSCGVKNRMHIRRKRIVGGKRAQLGDLPWQVAIKDASGITCGGIYIGGCWILTAAHCLRASKTHRYQIWTTVVDWIHPDLKRIVIEYVDRIIFHENYNAGTYQNDIALIEMKKDGNKKDCELPRSIPACVPWSPYLFQPNDTCIVSGWGREKDNERVFSLQWGEVKLISNCSKFYGNRFYEKEMECAGTYDGSIDACKGDSGGPLVCMDANNVTYVWGVVSWGENCGKPEFPGVYTKVANYFDWISYHVGRPFISQYNV
B2: CFI expressed in eyes of cynomolgus monkeys from AAV2-GP2031 (vector SEQ ID NO: 33) (protein)
chain: B1 chain with T282A

Legend:
[1] = biological target: C3b (Complement Technology cat. A114), purified human C3b (UniProt P01024)
[2] = biological target: C3b (Complement Technology cat. A114), purified human C3b, P01024
Chain of C3b (Complement Technology cat. A114), purified human C3b, P01024 (P01024 whole entry, looked up): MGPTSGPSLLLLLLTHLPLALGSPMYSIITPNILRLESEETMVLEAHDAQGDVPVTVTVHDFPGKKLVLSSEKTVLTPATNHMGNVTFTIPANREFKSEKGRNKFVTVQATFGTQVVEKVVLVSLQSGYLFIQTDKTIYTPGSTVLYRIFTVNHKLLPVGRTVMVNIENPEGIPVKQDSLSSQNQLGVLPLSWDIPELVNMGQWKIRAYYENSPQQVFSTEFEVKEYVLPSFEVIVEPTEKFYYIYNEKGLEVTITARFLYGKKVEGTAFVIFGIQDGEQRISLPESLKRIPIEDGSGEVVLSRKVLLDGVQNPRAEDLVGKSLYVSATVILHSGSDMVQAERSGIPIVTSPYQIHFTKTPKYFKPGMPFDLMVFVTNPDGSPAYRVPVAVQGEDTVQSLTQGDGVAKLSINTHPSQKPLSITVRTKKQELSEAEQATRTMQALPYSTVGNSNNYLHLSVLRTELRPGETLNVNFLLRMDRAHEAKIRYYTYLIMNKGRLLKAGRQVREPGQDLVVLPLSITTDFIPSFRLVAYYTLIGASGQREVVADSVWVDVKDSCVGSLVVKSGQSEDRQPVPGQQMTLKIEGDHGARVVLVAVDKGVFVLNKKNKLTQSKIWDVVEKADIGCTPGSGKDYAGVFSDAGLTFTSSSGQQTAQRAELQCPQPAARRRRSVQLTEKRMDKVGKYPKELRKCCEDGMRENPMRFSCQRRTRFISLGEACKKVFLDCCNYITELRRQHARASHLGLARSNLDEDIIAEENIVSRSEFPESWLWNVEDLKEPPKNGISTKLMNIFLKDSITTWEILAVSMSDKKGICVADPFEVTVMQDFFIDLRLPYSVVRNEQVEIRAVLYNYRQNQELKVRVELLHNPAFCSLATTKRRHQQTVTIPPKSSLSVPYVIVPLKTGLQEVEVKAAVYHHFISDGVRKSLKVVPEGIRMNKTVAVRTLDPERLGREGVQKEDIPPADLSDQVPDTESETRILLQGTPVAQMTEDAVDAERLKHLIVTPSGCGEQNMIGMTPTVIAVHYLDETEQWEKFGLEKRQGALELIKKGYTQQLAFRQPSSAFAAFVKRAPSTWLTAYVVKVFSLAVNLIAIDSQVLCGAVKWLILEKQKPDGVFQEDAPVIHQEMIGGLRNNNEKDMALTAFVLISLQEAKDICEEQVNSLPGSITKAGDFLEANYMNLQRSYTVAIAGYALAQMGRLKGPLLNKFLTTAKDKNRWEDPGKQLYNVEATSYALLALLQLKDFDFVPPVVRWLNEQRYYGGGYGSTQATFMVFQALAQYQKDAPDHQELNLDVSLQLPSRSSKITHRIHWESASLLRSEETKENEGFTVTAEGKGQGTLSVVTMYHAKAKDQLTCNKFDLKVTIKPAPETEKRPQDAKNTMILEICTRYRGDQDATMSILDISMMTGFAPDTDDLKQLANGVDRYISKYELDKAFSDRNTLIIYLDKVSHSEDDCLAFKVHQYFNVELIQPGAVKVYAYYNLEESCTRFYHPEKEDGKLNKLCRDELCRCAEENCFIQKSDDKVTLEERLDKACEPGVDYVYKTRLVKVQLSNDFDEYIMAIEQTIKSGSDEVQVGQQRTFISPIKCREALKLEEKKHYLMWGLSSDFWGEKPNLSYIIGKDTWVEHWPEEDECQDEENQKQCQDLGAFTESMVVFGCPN

Row | Molecule | fluorescence cofactor assay: change in RFUs of ANS-labeled C3b over time, with cofactor CFH, MCP or CR1 [1] | further results
1 | A240G CFI protein (Complement Factor I mutant variant) | certain CFI mutations (G119R, A240G, and P553S) were associated with greatly reduced CFI protein function | 
2 | G119R CFI protein (Complement Factor I mutant variant) | certain CFI mutations (G119R, A240G, and P553S) were associated with greatly reduced CFI protein function | 
3 | A300T CFI protein (Complement Factor I mutant variant) | the A300T mutation appeared to have relatively little impact on CFI function | 
4 | P553S CFI protein (Complement Factor I mutant variant) | certain CFI mutations (G119R, A240G, and P553S) were associated with greatly reduced CFI protein function | 
5 | B1 |  | slope of the co-factor assay (fluorescence of C3b/ANS with CFH, kinetic mode) [2]: the slope of the CFI control sample is -0.75±0.02
6 | B2 |  | fluorescence cofactor assay with CFH: reduction in fluorescence at 472 nm of C3b/ANS mixed with vitreous humor [2]: CFI expressed in eyes of cynomolgus monkeys was capable of cleaving C3b in a dose-dependent manner
